# Measured values as given in patent US20110008766A1.
# B1: DVD746 (bispecific antibody)
# VH: QVQLQQSGAELMKPGASVKISCKASGYTFTSYWIEWIKQRPGHGLEWIGEILPGTGSLNNNEKFRDKATFTADTSSNTAYMQLSSLTSEDSAVYYCARGYRYDGWFAYWGQGTLVTVSAASTKGPSVFPLAPEVQLQQSGPELVKPGASMKISCKASDYSFTAYTIHWMKQSHGKNLEWIGLINPYNGGTSYNQKFQGRATLTVDKSSSIAYMELLSLTSEDSAVYYCARRGYDREGHYYAMDYWGQGTSVTVSS
# VL: DIQMTQSPASLSASVGETVTITCRTSENIYSYLAWYQQKPGKSPHLLVYNTKTLAEGVPSRFSGSGSGTQFSLKINSLQPEDFGSYYCQHHYDSPLTFGSGTKLELKRTVAAPSVFIFPPDIQMTQSPASLAASVGETVTITCRASENIYTFLAWYQQKQGKSPQLLVYTTKTLAEGVPSRFSGSGSGTQFSLKIKSLQPEDFGSYYCQHHYGLPLTFGAGTKLELKR
# B2: DVD744 (antibody)
# VH: QIQLVQSGPELKKPGETVKISCKASGYTFTDYSMHWVKQAPGKGLKWMGWIHTETGEPRYVDDFKGRFAFSLETSASTAYLQINNLKNEDTATYFCARDSYYFGSSYYFDYWGQGTTLTVSSASTKGPSVFPLAPQIQLVQSGPELKKPGETVKISCKASGYTFTDYSMHWVKQAPGKGLKWMGWIHTETGEPRYVDDFKGRFAFSLETSASTAYLQINNLKNEDTATYFCARDSYYFGSSYYFDYWGQGTTLTVSS
# VL: DTVMTQSHKFMSTSVGDRVSITCKASQDVSSAVAWYQQKPGQSPKLLIYSASYRYTGVPDRFTGSGSGMDFTFTISSVQAEDLAVYYCQQHYSTPLTFGAGTKLELERTVAAPSVFIFPPDTVMTQSHKFMSTSVGDRVSITCKASQDVSSAVAWYQQKPGQSPKLLIYSASYRYTGVPDRFTGSGSGMDFTFTISSVQAEDLAVYYCQQHYSTPLTFGAGTKLELER
# B3: DVD716 (antibody)
# VH: QVQLQQSGAELMKPGASVKISCKASGYTFTSYWIEWIKQRPGHGLEWIGEILPGTGSLNNNEKFRDKATFTADTSSNTAYMQLSSLTSEDSAVYYCARGYRYDGWFAYWGQGTLVTVSAASTKGPSVFPLAPQVQLQQSGAELMKPGASVKISCKASGYTFTSYWIEWIKQRPGHGLEWIGEILPGTGSLNNNEKFRDKATFTADTSSNTAYMQLSSLTSEDSAVYYCARGYRYDGWFAYWGQGTLVTVSA
# VL: DIQMTQSPASLSASVGETVTITCRTSENIYSYLAWYQQKPGKSPHLLVYNTKTLAEGVPSRFSGSGSGTQFSLKINSLQPEDFGSYYCQHHYDSPLTFGSGTKLELKRTVAAPSVFIFPPDIQMTQSPASLSASVGETVTITCRTSENIYSYLAWYQQKPGKSPHLLVYNTKTLAEGVPSRFSGSGSGTQFSLKINSLQPEDFGSYYCQHHYDSPLTFGSGTKLELKR
# B4: DVD748 (bispecific antibody)
# VH: EVQLQQSGPELVKPGASMKISCKASDYSFTAYTIHWMKQSHGKNLEWIGLINPYNGGTSYNQKFQGRATLTVDKSSSIAYMELLSLTSEDSAVYYCARRGYDREGHYYAMDYWGQGTSVTVSSASTKGPSVFPLAPQVQLQQSGAELMKPGASVKISCKASGYTFTSYWIEWIKQRPGHGLEWIGEILPGTGSLNNNEKFRDKATFTADTSSNTAYMQLSSLTSEDSAVYYCARGYRYDGWFAYWGQGTLVTVSA
# VL: DIQMTQSPASLAASVGETVTITCRASENIYTFLAWYQQKQGKSPQLLVYTTKTLAEGVPSRFSGSGSGTQFSLKIKSLQPEDFGSYYCQHHYGLPLTFGAGTKLELKRTVAAPSVFIFPPDIQMTQSPASLSASVGETVTITCRTSENIYSYLAWYQQKPGKSPHLLVYNTKTLAEGVPSRFSGSGSGTQFSLKINSLQPEDFGSYYCQHHYDSPLTFGSGTKLELKR
# B5: DVD747 (bispecific antibody)
# VH: QVQLQQSGAELMKPGASVKISCKASGYTFTSYWIEWIKQRPGHGLEWIGEILPGTGSLNNNEKFRDKATFTADTSSNTAYMQLSSLTSEDSAVYYCARGYRYDGWFAYWGQGTLVTVSAASTKGPSVFPLAPASTKGPSVFPLAPEVQLQQSGPELVKPGASMKISCKASDYSFTAYTIHWMKQSHGKNLEWIGLINPYNGGTSYNQKFQGRATLTVDKSSSIAYMELLSLTSEDSAVYYCARRGYDREGHYYAMDYWGQGTSVTVSS
# VL: DIQMTQSPASLSASVGETVTITCRTSENIYSYLAWYQQKPGKSPHLLVYNTKTLAEGVPSRFSGSGSGTQFSLKINSLQPEDFGSYYCQHHYDSPLTFGSGTKLELKRTVAAPSVFIFPPTVAAPSVFIFPPDIQMTQSPASLAASVGETVTITCRASENIYTFLAWYQQKQGKSPQLLVYTTKTLAEGVPSRFSGSGSGTQFSLKIKSLQPEDFGSYYCQHHYGLPLTFGAGTKLELKR
# B6: DVD745 (antibody)
# VH: QIQLVQSGPELKKPGETVKISCKASGYTFTDYSMHWVKQAPGKGLKWMGWIHTETGEPRYVDDFKGRFAFSLETSASTAYLQINNLKNEDTATYFCARDSYYFGSSYYFDYWGQGTTLTVSSASTKGPQIQLVQSGPELKKPGETVKISCKASGYTFTDYSMHWVKQAPGKGLKWMGWIHTETGEPRYVDDFKGRFAFSLETSASTAYLQINNLKNEDTATYFCARDSYYFGSSYYFDYWGQGTTLTVSS
# VL: DTVMTQSHKFMSTSVGDRVSITCKASQDVSSAVAWYQQKPGQSPKLLIYSASYRYTGVPDRFTGSGSGMDFTFTISSVQAEDLAVYYCQQHYSTPLTFGAGTKLELERTVAAPDTVMTQSHKFMSTSVGDRVSITCKASQDVSSAVAWYQQKPGQSPKLLIYSASYRYTGVPDRFTGSGSGMDFTFTISSVQAEDLAVYYCQQHYSTPLTFGAGTKLELER
# B7: DVD750 (antibody)
# VH: EVQLQQSGPELVQPGASMKISCKASGYSFTDYTMNWVKQSHGKNLEWIGLINPYNGGSRYNQKFMAKATLTVDKSSNTAYMELLSVTSEDSAVYYCARDAGYFGSGFYFDYWGQGTTLTVSSASTKGPSVFPLAPEVQLQQSGPELVQPGASMKISCKASGYSFTDYTMNWVKQSHGKNLEWIGLINPYNGGSRYNQKFMAKATLTVDKSSNTAYMELLSVTSEDSAVYYCARDAGYFGSGFYFDYWGQGTTLTVSS
# VL: DIVMTQSHKFMSTSVGDRVSITCKASQDVSTAVAWYQQKPGQSPKLLIYSASYRSTGVPDRFTGSGSGTDFTFTISSVQAEDLAVYYCQQHYSTPTFGAGTKLELKRTVAAPSVFIFPPDIVMTQSHKFMSTSVGDRVSITCKASQDVSTAVAWYQQKPGQSPKLLIYSASYRSTGVPDRFTGSGSGTDFTFTISSVQAEDLAVYYCQQHYSTPTFGAGTKLELKR
# B8: DVD715 (antibody)
# VH: QVQLQQSGAELMKPGASVKISCKASGYTFTSYWIEWIKQRPGHGLEWIGEILPGTGSLNNNEKFRDKATFTADTSSNTAYMQLSSLTSEDSAVYYCARGYRYDGWFAYWGQGTLVTVSAASTKGPQVQLQQSGAELMKPGASVKISCKASGYTFTSYWIEWIKQRPGHGLEWIGEILPGTGSLNNNEKFRDKATFTADTSSNTAYMQLSSLTSEDSAVYYCARGYRYDGWFAYWGQGTLVTVSA
# VL: DIQMTQSPASLSASVGETVTITCRTSENIYSYLAWYQQKPGKSPHLLVYNTKTLAEGVPSRFSGSGSGTQFSLKINSLQPEDFGSYYCQHHYDSPLTFGSGTKLELKRTVAAPDIQMTQSPASLSASVGETVTITCRTSENIYSYLAWYQQKPGKSPHLLVYNTKTLAEGVPSRFSGSGSGTQFSLKINSLQPEDFGSYYCQHHYDSPLTFGSGTKLELKR
# Biological target: HIV antigen
# Assay: FRET quenching titration in solution; one value given for outer and inner domain
row,Kd [nM],Binder
1,0.2,B1
2,0.4,B2
3,< 0.02,B3
4,< 0.03,B4
5,< 0.06,B5
6,0.4,B6
7,< 0.02,B7
8,< 0.02,B8
